Tested on: K4 kissing-loop RNA reporter
Assay: apparent KD of K4 kissing-loop reporter; higher = weaker reporter binding
Conditions: Eterna round: R107
Method: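 RNA-MaP round R107: designed RNA switches with theophylline, tryptophan, arginine or FMN aptamers are transcribed on-chip within common flanks. They are titrated with a labelled K4 kissing-loop RNA reporter in RNA-MaP buffer (100 mM Tris pH 7.5, 80 mM KCl, 4 mM MgCl2), without ligand or with the indicated ligand. Median apparent KD per design.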

[1] = input ligand: theophylline 20 uM
[2] = input ligand: tryptophan 2.4 mM
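Further: bound reporter read as fluorescence of individual clusters on recovered sequencing chips by microscopy, with normalized cluster intensities fitted with a binding model.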

| Sequence | apparent KD of K4 kissing-loop reporter (input ligand: FMN 200 uM) | apparent KD of K4 kissing-loop reporter (input ligand: arginine 13.2 mM) | apparent KD of K4 kissing-loop reporter (input ligand: none) | apparent KD of K4 kissing-loop reporter [1] | apparent KD of K4 kissing-loop reporter [2] |
| --- | --- | --- | --- | --- | --- |
| UGACAUUGCUCAGAUACCAGACUUGAGGAUCACCCAGGUGCCAAAUACGUACAAAUAAAAGUCCCUUGGCAGCUGAGCAAUGUCU [TheoBX 12] | 72.1 nM | 55.6 nM | 63.1 nM | 113 nM | 29.3 nM |
| UGACGCCUGUCGGCCGCCACUCACAGCAGCCAGUGAUGUUGGAUUGUAGCGGAGUGAUGUUUCGCGAGGACCGGGACUGCAGUUG [Same State Tryptophan B GF 13] | 259 nM | 249 nM | 260 nM | 321 nM | 250 nM |
| UGACGUUUGGGAAGGAGCGGAAUGUAAUACGGAAUGCGUGGAGAUGCAGUGAUGUUGCAGAUCCAGGUAGGUCGCCCAAGGGACG [Soanina] | 99.5 nM | 84.9 nM | 91.2 nM | 79.3 nM | 87.8 nM |
| UGACUACAGGAAUAAUAAUCUUAGUGAUGUUAGGAUAUGCUGAUAAGCAGAAGGAACUGAGAUCGAAAGAUCUCAAAAGUAGUCU [#05 K4 FMN A Exclusion] | 445 nM | 167 nM | 202 nM | 236 nM | 199 nM |
| UGACUGGACUGAAGGAGCGAGCGAGACAAAGUCUCGAAUUUUCAGUGAUGUUGAUAUAUAACUCAGGUAGGUCGCAGUCUAGUCU [ArgBS 8 #SwitchBubble #StaticStem] | 395 nM | 423 nM | 543 nM | 438 nM | 441 nM |
| UGACUGGACUGAAGGAGCGCCACGGUCAUAGACCGAAUAAGGAGUGAUGUUCCACAUAAAAGGCAGGUAGGUCGCAGUCUAGUCU [ArgBS 2 #SwitchBubble #StaticStem] | 121 nM | 113 nM | 107 nM | 98.1 nM | 101 nM |
| UGACUGGACUGAAGGAGCGCGAAACUCCUAGUGAUGUUAGGAAAACGAGACAAAGUCUCGACGCAGGUAGGUCGCAGUCUAGUCU | 125 nM | 102 nM | 103 nM | 115 nM | 135 nM |
| UGACUGGACUGAAGGAGCGCUGAACUCCUAGUGAUGUUAGGAUAACGAGACAAAGUCUCGAAGCAGGUAGGUCGCAGUCUAGUCU | 118 nM | 95.3 nM | 112 nM | 123 nM | 108 nM |
| UGACUGGACUGAAGGAGCGCUGAACUCCUAGUGAUGUUAGGAUAACGAGACAAAGUCUCGCGGCAGGUAGGUCGCAGUCUAGUCU | 122 nM | 93.3 nM | 109 nM | 99.3 nM | 106 nM |
| UGACUGGACUGAAGGAGCGCUUAACUCCUAGUGAUGUUAGGGAAACGAGACAAAGUCUCGAAGCAGGUAGGUCGCAGUCUAGUCU | 216 nM | 164 nM | 217 nM | 211 nM | 194 nM |
| UGACUGGACUGAAGGAGCGUUCAGGUAGGUCGCUAUGGAGUGAUGUUCCAUAGAAGGAGCGAACAGGUAGGUCGCAGUCUAGUCU [ArgBS 30 #DoubleAptamer #SwitchBubble] | 181 nM | 100 nM | 111 nM | 167 nM | 120 nM |
| UGACUGGACUGAAGGAGCGUUGAAGGAGCGUAAGCAGUGAUGUUGCUUACAGGUAGGUCGCAGCAGGUAGGUCGCAGUCUAGUCU [ArgBS 28 #DoubleAptamer #SwitchBubble] | 134 nM | 102 nM | 122 nM | 115 nM | 122 nM |
| UGAUAAAGCAGUGAUGUUGCAAGAAAUGAUACCAGUUAAGAAAAGAACCCUUGGCAGCAUAAAGUGCGCUCUAAUGAGUGUGCUU [theophylline a same state] | 141 nM | 183 nM | 156 nM | 231 nM | 126 nM |
| UGAUAAUGCAGUGAUGUUGCUAGAAACGAUACCAGUUAAGAAAAGAACCCUUGGCAGCGUAAAGUGCGCUCUAAUGAGUGUGCUU [#10 K4 Theophylline A Same State] | 164 nM | 195 nM | 194 nM | 212 nM | 132 nM |
| UGAUACCAGACGGCCGCCACUAGGACCGGGAGUGAUGUUCCCAAAUUAAAAUACUCGGCCGCCACUAGGACCGGGUCUGGUAUCU [TrypBX 26 #DoubleAptamer #SwitchBubble] | 244 nM | 269 nM | 295 nM | 360 nM | 113 nM |
| UGAUACCAGACGGCCGCCACUCCCGUAAGUCAAAGACUUACGAAGAGUAUCGUCCAGUGAUGUUGGAGGACCGGGUCUGGUAUCU [FiskerMod 10 - Jieux - Exclusion - Tryptophan B] | 344 nM | 298 nM | 338 nM | 320 nM | 729 nM |
| UGAUACCAGACGGCCGCCACUCCUGCAAGUCAAAGACUUGCUAAAGGAAUCGUCCAGUGAUGUUGGAGGACCGGGUCUGGUAUCU [TrypBX 18 #SwitchBubble #Palindromic #StaticStem] | 1040 nM | 745 nM | 1160 nM | 890 nM | 602 nM |

From the supplement of paper PMC9170038
